B1: Human cyclin B1 peptide from the database, SEQ ID NO: 7 (AKYLMELTM) (peptide)
peptide: AKYLMELTM
notes: also called HeLa-derived cyclin B1 peptide
B2: Human cyclin B1 peptide from the database, SEQ ID NO: 8 (AKYLMELTML) (peptide)
peptide: AKYLMELTML
notes: as for B1
B3: Cyclin B1 peptide from the tumor, SEQ ID NO: 5 (AGYLMELCMA) (peptide)
peptide: AGYLMELCMA
notes: Synthesized by F-moc chemistry, with leucine at positions 4 and 7
B4: Cyclin B1 peptide from the tumor, SEQ ID NO: 6 (AGYLMELCFA) (peptide)
peptide: AGYLMELCFA
notes: as for B3
B5: Cyclin B1 peptide from the tumor, SEQ ID NO: 1 (AGYLMELCV) (peptide)
peptide: AGYLMELCV
notes: Synthesized by F-moc chemistry, with leucine at positions 4 and 7; also called P1
B6: Cyclin B1 peptide from the tumor, SEQ ID NO: 3 (AGYLMELCF) (peptide)
peptide: AGYLMELCF
notes: Synthesized by F-moc chemistry, with leucine at positions 4 and 7; also called P3
B7: Cyclin B1 peptide from the tumor, SEQ ID NO: 2 (AGYLMELCM) (peptide)
peptide: AGYLMELCM
notes: Synthesized by F-moc chemistry, with leucine at positions 4 and 7; also called P2
B8: Cyclin B1 peptide from the tumor, SEQ ID NO: 4 (AGYLMELCC) (peptide)
peptide: AGYLMELCC
notes: also called P4

This assay concerns the target T1, HLA-A2.1 molecules on T2 cells (human).
T1 construct: MHC class I molecule on the surface of T2 cells; also called HLA-A*0201
Briefly: HLA class I stabilization assay on T2 cells, MA2.1 staining, flow cytometry. As for the experimental part:
HLA Class I stabilization assays. Peptide-induced stabilization of HLA-A2.1 molecules on T2 cells was done as previously described (Zeh et al., Hum. Immunol., 39(2), 79-86 (1994)). 2×10⁵ T2 cells were incubated with […] of the indicated synthetic peptides in […] human B2m (Calbiochem, La Jolla, Calif.) for 18-20 hours at room temperature. The cells were then stained with the HLA-A2.1-specific antibody, MA2.1, for 45 minutes, washed with FACS Buffer (PBS, 5% FBS, and 0.01% sodium azide), and stained with a secondary FITC-conjugated anti-IgG antibody (Biosource International, Camarillo, Calif.). The cells were fixed in 4% formaldehyde prior to flow cytometry analysis. The negative control consisted of T2 cells without peptide. The positive control consisted of T2 cells loaded with the Flu matrix peptide, […]. Flow cytometric analysis was done using a FACScan flow cytometer (Becton-Dickinson). Experimental results are depicted as X-Fold increase=(Mean Fluorescent Intensity of T2 cells loaded with peptide/Mean Fluorescent Intensity of T2 cells with no peptide).
In general terms: A flow cytometer gives signals particle by particle.
In the case of B1, the “HLA-A2.1 Binding (X-Fold increase of MFI)” value turned out to be 2.28 fold.
In the case of B2 it was 2.25 fold; in that of B3, 1.58 fold.
In the case of B4 it was 2.08 fold; in that of B5, 1.6 fold.
For B6 the value was 1.42 fold; for B7, 1.48 fold; for B8, 1.61 fold.

(Values after US20030143647A1 (UNIVERSITY OF PITTSBURGH OF THE COMMONWEALTH SYSTEM OF …, published 2003).)
